Measured values: US20090253622A1, “USE OF TLR3 AGONISTS FOR THE TREATMENT OF NEURODEGENERATIVE DISORDERS” (Nederlandse Organisatie voor toegepast - …, priority 2006, published 2009)

Tested on: human astrocytes
Experiment: cDNA bank screening: COS-7 transfectant supernatants on human astrocytes, CXCL8 release
Format: cell-based
Conditions: COS-7 supernatant, 48 h
Protocol: Cos-7 cells (25,000 cells per well in 96-well plates) were transfected for 5 h with 768 pools of cDNA derived from human brain tumours (5 pooled tumours including meningioma, oligodendroglioma, astrocytoma grades II and IV, and medulloblastoma; NCI CGAP Brn35; Invitrogen) using lipofectamine, after which cells were thoroughly washed. Transfection with green-fluorescent protein-encoding cDNA was used as an internal control for transfection efficiencies. After continued culture of the transfected cells for 48 h, 75 μL of each culture supernatant was harvested and added to cultured human astrocytes seeded at 1,000 cells per well in 75 μL. After 48 h of culture, supernatants were harvested and evaluated for CXCL8 release using ELISA. […]
A cDNA bank derived from 5 pooled tumours including meningioma, oligodendroglioma, astrocytoma grades II and IV and medulloblastoma was used as a source of sequences potentially encoding an endogenous protein agonist for TLR3. The cDNAs were cloned into plasmid vectors promoting expression and secretion of the cDNA-encoded product by mammalian cells, and these plasmids were transfected into COS-7 cells and evaluated in a two-step approach. […] To monitor such an astrocyte response in this first stage, secretion of CXCL8 was evaluated since this is a sensitive marker for TLR3 activation in these and other cells (cf. FIGS. 9 and 10). […]

B1: clone F5: cDNA clone product with amino acid sequence identical to residues 44-149 of human stathmin (protein)
chain: DFSLEEIQKKLEAAEERRKSHEAEVLKQLAEKREHEKEVLQKAIEENNNFSKMAEEKITHKMEANKENREAQMAAKLERLREKDKHIEEVRKNKESKDPADETEAD
For B1, the “CXCL8 secretion in astrocytes triggered by cDNA-encoded product” value was “marked CXCL8 secretion”.
